# Reference: US20030100114, “Methods for regulating T cell subsets by modulating transcription factor activity” (President and Fellows of Harvard College, published 2003)
# B1: IL-4 promoter -59 to -27 wild type (dsDNA)
# DNA 1: CTCATTTTCCCTTGGTTTCAGCAACTTTAACTC
# DNA 2: GAGTTAAAGTTGCTGAAACCAAGGGAAAATGAG
# B2: consensus MARE (dsDNA)
# DNA 1: GGAATTGCTGACTCAGCATTACT
# DNA 2: AGTAATGCTGAGTCAGCAATTCC
# Assays:
# [1] = target: T1, c-Maf (b-zip domain, aa 171-371) (UniProt P54843 P54843:171-370); test: EMSA; competed by homologous unlabeled probe; additional complex formed with NF-ATp; conditions: tags: S-Tag, pET29, E. coli BL21(DE3); label: 32P
# Experimental: (§1) Electrophoretic mobility shift assays (EMSA) were performed as follows. 100 ng of double-stranded oligonucleotides were end-labeled with γ-³²P-dATP (DuPont NEN Research Product, Wilmington, Del.) using T4 polynucleotide kinase (Pharmacia LKB Biotechnology, Inc., Piscataway, N.J.). The labeled ds-oligonucleotides were fractionated on 15-20% polyacrylamide gels, eluted overnight at 37° C. in 1×TE and precipitated in ethanol. Binding assays were performed at room temperature for 20 minutes using 0.5 μg of recombinant proteins or 4 μl of in vitro translated products, 500 ng poly(dI-dC), and 20,000 cpm of probe in a 15 μl volume of 20 mM HEPES (pH 7.9), 100 mM KCl, 5% glycerol, 1 mM EDTA, 5 mM DTT, 0.1% NP-40, and 0.5 mg/ml BSA. The samples were then fractionated in 4% non-denaturing polyacrylamide gel containing 0.5×TBE at room temperature. Oligonucleotides derived from the murine IL4 promoter used in EMSA were:
# (§2) NF-AT proteins interact cooperatively with AP-1 family member proteins to form higher mobility complexes on IL-2 and IL-4 promoter DNA on EMSA (Jain, J. (1993) Nature 365:353-355; Rooney, J. et al. (1995) Immunity 2:545-553). […] To determine if c-Maf interacted with NF-AT in the presence of DNA, recombinant NF-ATp and c-Maf proteins were used separately or together in EMSA with the 33 bp oligonucleotide containing both the NF-AT and adjacent MARE sites. […]
# [2] = target: T2, c-Jun (Mus musculus, UniProt P05627 P05627:1-334); test: EMSA; conditions: tags: full-length, pGEM4, rabbit reticulocyte lysate TnT; label: 32P
# Experimental: as §1, §2
# [3] = target: T1, c-Maf (b-zip domain, aa 171-371); test: EMSA; 20 mM HEPES pH 7.9, 100 mM KCl, room temperature; conditions: tags: S-Tag, pET29, E. coli BL21(DE3); label: 32P
# Experimental: as §1, with “were: […]” for “were:”
# [4] = target: T2, c-Jun; test: EMSA; consensus MARE contains core TRE site; conditions: tags: full-length, pGEM4, rabbit reticulocyte lysate TnT; label: 32P
# Experimental: as §1, with “were: […]” for “were:”
# T1 sequence (P54843 171-370, one chain of several): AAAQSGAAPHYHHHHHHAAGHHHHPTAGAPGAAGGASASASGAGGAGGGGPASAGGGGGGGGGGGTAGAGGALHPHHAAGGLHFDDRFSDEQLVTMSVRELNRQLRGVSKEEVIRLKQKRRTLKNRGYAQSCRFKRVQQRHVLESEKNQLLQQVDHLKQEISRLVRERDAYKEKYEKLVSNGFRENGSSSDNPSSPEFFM
# T2 sequence (P05627 whole entry, one chain of several): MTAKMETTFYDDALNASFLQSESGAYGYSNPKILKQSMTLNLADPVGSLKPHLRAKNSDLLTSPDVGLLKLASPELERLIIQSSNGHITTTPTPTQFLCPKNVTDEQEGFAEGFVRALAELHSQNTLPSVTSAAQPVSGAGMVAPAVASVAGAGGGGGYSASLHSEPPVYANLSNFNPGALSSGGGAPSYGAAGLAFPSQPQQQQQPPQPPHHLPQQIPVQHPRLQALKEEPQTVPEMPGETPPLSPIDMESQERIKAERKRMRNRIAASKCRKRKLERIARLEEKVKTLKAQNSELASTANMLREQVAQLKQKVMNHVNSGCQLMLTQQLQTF
Binder,binding result [1],binding result [2],binding result [3],binding result [4]
B1,binds,no binding,–,–
B2,–,–,binds,binds
